What was measured:
[1] = molecular target: T1, human c-Met/Fc fusion protein (R&D Systems) (human, UniProt P08581 25-932); assay: ELISA, human c-Met/Fc fusion protein coated on the plate, hybridoma culture supernatant
T1 construct: Bought reagent; treated here as the same reagent; also called c-Met-Fc (#358-MT/CF, R&D Systems); human c-Met/Fc protein; not shown: Fc part of the bought fusion protein
Experimental: The hybridoma cell culture obtained in Reference Example 1.1.2 was added in an amount of 50 μL to each well of the plates and incubated for 1 hour. The cells remaining unreacted were washed out with a sufficient amount of Tris-buffered saline and Tween 20 (TBST). Goat anti-mouse IgG-horseradish peroxidase (HRP) was added to the plates and incubated for 1 hour at room temperature. The plates were washed with a sufficient amount of TBST, followed by reacting the peroxidase with a substrate (OPD). Absorbance at 450 nm was measured on an ELISA reader.

[2] = molecular target: T1, human c-Met/Fc fusion protein (R&D …); assay: SPR, Biacore T100; antibody captured by human Fab binder on CM5 chip, c-Met-Fc injected
Experimental: To confirm whether the prepared PEG-introduced antibodies containing PEG with various molecular weights can maintain the binding affinity to the antigen, the binding affinity of the prepared PEG-introduced antibodies to c-Met was measured using Biacore T100(GE) and compared with that of an antibody with no PEG (Ab).
In particular, human Fab binder (GE Healthcare) was fixed on a surface of CM5 chip (#BR-1005-30, GE) according to the manufacturer's manual. About 90 to 120 Ru of each of the PEG-introduced antibodies was captured, and c-Met-Fc (#358-MT/CF, R&D Systems) was injected at various concentrations into the captured PEG-introduced antibody. 10 mM Glycine-HCl (pH 1.5) solution was injected thereto to regenerate the surface. In order to measure affinity, the data obtained from this experiment was fitted using BIAevaluation software (GE Healthcare, Biacore T100 evaluation software).

T1 sequence (P08581 25-932 limits assumed): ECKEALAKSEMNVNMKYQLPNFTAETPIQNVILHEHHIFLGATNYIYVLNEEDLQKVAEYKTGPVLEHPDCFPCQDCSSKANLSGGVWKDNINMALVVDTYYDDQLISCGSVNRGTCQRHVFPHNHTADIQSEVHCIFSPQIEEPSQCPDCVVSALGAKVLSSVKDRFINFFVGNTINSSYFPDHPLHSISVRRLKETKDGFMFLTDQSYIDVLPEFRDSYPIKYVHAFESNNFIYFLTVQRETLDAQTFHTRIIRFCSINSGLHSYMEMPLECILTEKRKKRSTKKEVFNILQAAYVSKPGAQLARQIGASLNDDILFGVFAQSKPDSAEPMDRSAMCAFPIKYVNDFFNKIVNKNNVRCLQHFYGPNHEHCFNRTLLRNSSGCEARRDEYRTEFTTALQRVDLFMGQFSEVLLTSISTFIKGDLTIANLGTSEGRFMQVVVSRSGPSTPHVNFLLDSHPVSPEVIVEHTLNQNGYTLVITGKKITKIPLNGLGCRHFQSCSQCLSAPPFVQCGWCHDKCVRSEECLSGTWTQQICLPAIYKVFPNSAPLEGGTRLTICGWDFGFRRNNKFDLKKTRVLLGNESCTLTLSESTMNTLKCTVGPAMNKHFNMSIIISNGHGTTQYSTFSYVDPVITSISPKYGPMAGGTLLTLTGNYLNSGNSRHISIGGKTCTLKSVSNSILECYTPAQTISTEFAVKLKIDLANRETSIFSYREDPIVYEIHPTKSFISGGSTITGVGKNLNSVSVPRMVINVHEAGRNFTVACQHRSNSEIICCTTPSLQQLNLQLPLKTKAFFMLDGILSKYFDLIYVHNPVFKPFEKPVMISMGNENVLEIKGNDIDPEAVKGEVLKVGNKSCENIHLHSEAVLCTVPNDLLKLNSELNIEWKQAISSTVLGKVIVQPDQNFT

| binding result [1] | Kd [2] | Binder |
| --- | --- | --- |
| binds | – | AbF46, mouse monoclonal antibody to c-Met (hybridoma KCLRF-BP-00220) (antibody, V domains shown, Tested as hybridoma culture supernatant in the selection ELISA; also called mouse antibody AbF46) VH: EVKLVESGGGLVQPGGSLRLSCATSGFTFTDYYMSWVRQPPGKALEWLGFIRNKANGYTTEYSASVKGRFTISRDNSQSILYLQMDTLRAEDSATYYCARDNWFAYWGQGTLVTVSA VL: DILMTQSPSSLTVSAGEKVTMSCKSSQSLLASGNQNNYLAWHQQKPGRSPKMLIIWASTRVSGVPDRFIGSGSGTDFTLTINSVQAEDLAVYYCQQSYSAPLTFGAGTKLELK |
| – | 0.0619 nM | PEG-introduced antibody L3-1Y/IgG2 with 30 kDa polyethyleneglycol (antibody, V domains shown, see heavy chain: the PEG may stand at the N-terminus of a light chain instead; 30 kDa methoxypolyethyleneglycol at the N-terminus of the antibody (N-terminus of a heavy chain or of a light chain; which one is not resolved); mono-PEG per paragraph 213, also called 30kPEG Ab; mono-PEG antibody (30 kDa)) VH: EVQLVESGGGLVQPGGSLRLSCAASGFTFTDYYMSWVRQAPGKGLEWLGFIRNKANGYTTEYSASVKGRFTISRDNSKNTLYLQMNSLRAEDTAVYYCARDNWFAYWGQGTLVTVSS VL: DIQMTQSPSSLSASVGDRVTITCKSSQSLLASGNQNNYLAWYQQKPGKAPKMLIIWASTRVSGVPSRFSGSGSGTDFTLTISSLQPEDFATYYCQQSYSRPYTFGQGTKVEIKR |
| – | 0.0859 nM | PEG-introduced antibody L3-1Y/IgG2 with 10 kDa polyethyleneglycol (antibody, V domains shown, see heavy chain: the PEG may stand at the N-terminus of a light chain instead; 10 kDa methoxypolyethyleneglycol at the N-terminus of the antibody (N-terminus of a heavy chain or of a light chain; which one is not resolved); mono-PEG per paragraph 213, also called 10kPEG Ab; mono-PEG antibody (10 kDa)) VH: EVQLVESGGGLVQPGGSLRLSCAASGFTFTDYYMSWVRQAPGKGLEWLGFIRNKANGYTTEYSASVKGRFTISRDNSKNTLYLQMNSLRAEDTAVYYCARDNWFAYWGQGTLVTVSS VL: DIQMTQSPSSLSASVGDRVTITCKSSQSLLASGNQNNYLAWYQQKPGKAPKMLIIWASTRVSGVPSRFSGSGSGTDFTLTISSLQPEDFATYYCQQSYSRPYTFGQGTKVEIKR |
| – | 0.0823 nM | anti-c-Met antibody L3-1Y-IgG2 (huAbF46-H4-A1 (IgG2 Fc)) (antibody, V domains shown, also called antibody with no PEG) VH: EVQLVESGGGLVQPGGSLRLSCAASGFTFTDYYMSWVRQAPGKGLEWLGFIRNKANGYTTEYSASVKGRFTISRDNSKNTLYLQMNSLRAEDTAVYYCARDNWFAYWGQGTLVTVSS VL: DIQMTQSPSSLSASVGDRVTITCKSSQSLLASGNQNNYLAWYQQKPGKAPKMLIIWASTRVSGVPSRFSGSGSGTDFTLTISSLQPEDFATYYCQQSYSRPYTFGQGTKVEIKR |
| – | 0.0729 nM | PEG-introduced antibody L3-1Y/IgG2 with 20 kDa polyethyleneglycol (antibody, V domains shown, see heavy chain: the PEG may stand at the N-terminus of a light chain instead; 20 kDa methoxypolyethyleneglycol at the N-terminus of the antibody (N-terminus of a heavy chain or of a light chain; which one is not resolved); mono-PEG per paragraph 213, also called 20kPEG Ab; mono-PEG antibody (20 kDa)) VH: EVQLVESGGGLVQPGGSLRLSCAASGFTFTDYYMSWVRQAPGKGLEWLGFIRNKANGYTTEYSASVKGRFTISRDNSKNTLYLQMNSLRAEDTAVYYCARDNWFAYWGQGTLVTVSS VL: DIQMTQSPSSLSASVGDRVTITCKSSQSLLASGNQNNYLAWYQQKPGKAPKMLIIWASTRVSGVPSRFSGSGSGTDFTLTISSLQPEDFATYYCQQSYSRPYTFGQGTKVEIKR |

— patent US20150335669A1 (SAMSUNG ELECTRONICS, published 2015)
